The source of these data is US20240052048A1 (SUZHOU QIN PHARMACEUTICALS, published 2024).

B1: human BCMA (recombinant antigen, tag not stated for the assay) (receptor, UniProt Q02223 1-54, looked up)
chain: MLQMAGQCSQNEYFDSLLHACIPCQLRCSSNTPPLTCQRYCNASVTNSVKGTNA
notes: The ELISA and screening sections say only 'human BCMA'; also called human BCMA antigen
B2: GSK2857916 (positive control antibody, not coupled to the toxin molecule) (antibody, V domains shown)
VH: QVQLVQSGAEVKKPGSSVKVSCKASGGTFSNYWMHWVRQAPGQGLEWMGATYRGHSDTYYNQKFKGRVTITADKSTSTAYMELSSLRSEDTAVYYCARGAIYDGYDVLDNWGQGTLVTVSS
VL: DIQMTQSPSSLSASVGDRVTITCSASQDISNYLNWYQQKPGKAPKLLIYYTSNLHSGVPSRFSGSGSGTDFTLTISSLQPEDFATYYCQQYRKLPWTFGQGTKLEIK
notes: also called Belantamab mafodotin antibody; positive antibody

Assay [1] addresses T1, human-APRIL-Fc (human, UniProt O75888 115-250, limits assumed).
T1 construct: Bought from ACRO Biosystems, APL-H5267; also called human APRIL protein; ACRO Biosystems APL-H5267; not shown: Fc tag
T1 sequence (looked up): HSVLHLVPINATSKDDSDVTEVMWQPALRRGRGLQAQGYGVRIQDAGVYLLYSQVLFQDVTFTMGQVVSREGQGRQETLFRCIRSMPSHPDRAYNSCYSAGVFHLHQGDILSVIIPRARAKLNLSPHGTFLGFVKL
The assay is described as follows: ELISA (OD450), plate coated with APRIL 8 µg/ml, human BCMA titrated up to 10 µg/mL; EC50 table in the figure. On the technique in general: In an ELISA, binding on a coated surface is turned into a signal by an enzyme label.

Assay [2] has as its target T1, human-APRIL-Fc. Description: ELISA (OD450), plate coated with APRIL 4 µg/ml, human BCMA titrated up to 10 µg/mL; EC50 table in the figure.
Assay [3] has as its target T1, human-APRIL-Fc. Description: ELISA (OD450), plate coated with APRIL 2 µg/ml, human BCMA titrated up to 10 µg/mL; EC50 table in the figure.
The target in assay [4] is T1, human-APRIL-Fc. Description: ELISA (OD450), plate coated with APRIL 1 µg/ml, human BCMA titrated up to 10 µg/mL; EC50 table in the figure.
Assay [5] addresses T2, Biotin-labeled human BCMA (human, UniProt Q02223 1-54, limits assumed, Biotin-labeled (site not stated)).
T2 sequence (looked up): B1 chain
The assay is described as follows: blocking ELISA (OD450): human BAFF coated, antibody premixed with Biotin-labeled human BCMA; blocked ligand BAFF; IC50 table in the figure.

The target of assay [6] is T3, human-BCMA-Fc (human, UniProt Q02223 1-54).
T3 construct: Bought from ACRO Biosystems, catalog BC7-H5254; also called ACRO Biosystems BC7-H5254; not shown: Fc tag
T3 sequence (looked up): B1 chain
Description: BLI (Octet RED96), antibody on FAB2G sensor, human BCMA-Fc at 200, 50, 12.5 nM. (In general: BLI is a label-free optical method that tracks binding on a fibre tip over time.)

The target of assay [7] is B1. The assay is described as follows: ELISA (OD450) on coated human BCMA; EC50 table in the figure.
Assay [8] concerns the target B1. The assay is described as above. The source holds these as a separate data set.
Assay [9] addresses T4, human BCMA on BCMA-HEK293 cells (human, UniProt Q02223 1-184).
T4 construct: whole, on cells; also called human BCMA-HEK293 cells; HEK293 cells overexpressing human BCMA
T4 sequence (looked up): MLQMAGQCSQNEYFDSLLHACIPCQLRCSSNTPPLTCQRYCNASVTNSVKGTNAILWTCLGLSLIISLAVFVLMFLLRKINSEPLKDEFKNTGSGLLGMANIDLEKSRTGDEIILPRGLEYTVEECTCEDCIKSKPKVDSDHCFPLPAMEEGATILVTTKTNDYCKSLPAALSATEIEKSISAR
Description: flow cytometry (MFI) on HEK293 cells expressing human BCMA; EC50 table in the figure. (In general: In flow cytometry, cells or beads pass a laser one at a time.)

Assay [10] deals with T5, monkey BCMA (recombinant antigen, tag not stated for the assay) (monkey, UniProt A0A2K5UD97 1-53).
T5 construct: The ELISA, screening and BLI sections say only 'monkey BCMA' or 'monkey BCMA protein'; also called monkey BCMA protein; monkey BCMA antigen; not shown: The carrier tag (human IgG1 Fc or His tag) of the bought ACRO antigen
Description: ELISA (OD450) on coated monkey BCMA; EC50 table in the figure.

In assay [11] the target is T5, monkey BCMA (recombinant antigen, tag …). Described as above. The source holds these as a separate data set.
The target in assay [12] is T2, Biotin-labeled human BCMA. Description: blocking ELISA (OD450): human BAFF coated, antibody premixed with Biotin-labeled human BCMA; blocked ligand BAFF; IC50 table in the figure. The source holds these as a separate data set.
Assay [13] addresses T5, monkey BCMA (recombinant antigen, tag …). Description: BLI (Octet RED96), antibody on FAB2G sensor, monkey BCMA protein at 200, 50, 12.5 nM.
The target in assay [14] is T2, Biotin-labeled human BCMA. The assay is described as follows: blocking ELISA (OD450): human APRIL coated, antibody premixed with Biotin-labeled human BCMA; blocked ligand APRIL; IC50 table in the figure.
Assay [15] deals with T4, human BCMA on BCMA-HEK293 cells. Description: flow cytometry (MFI) on HEK293 cells expressing human BCMA; EC50 table in the figure. This is another data set of the same source.
Assay [16] has as its target T6, monkey BCMA on BCMA-CHO cells (cynomolgus monkey, UniProt A0A2K5UD97 1-183).
T6 construct: whole, on cells; also called monkey BCMA-CHO cells; CHO cells overexpressing monkey BCMA
The assay is described as follows: flow cytometry (MFI) on CHO cells expressing monkey BCMA; EC50 table in the figure.

Assay [17] concerns the target T2, Biotin-labeled human BCMA. The assay is described as follows: blocking ELISA (OD450): human APRIL coated, antibody premixed with Biotin-labeled human BCMA; blocked ligand APRIL; IC50 table in the figure. This is another data set of the same source.
A further assay concerns the target T7, human-BCMA-His (human, UniProt Q02223 1-54).
T7 construct: Bought from ACRO Biosystems, catalog BCA-H522y; also called ACRO Biosystems BCA-H522y; not shown: His tag
T7 sequence (looked up): B1 chain
The assay is described as follows: ELISA (OD450), GSK2857916 titrated up to 10 µg/mL on Human BCMA-His; EC50 table in the figure.

The target in assay [18] is T2, Biotin-labeled human BCMA. Description: blocking ELISA (OD450): human BAFF coated, antibody premixed with Biotin-labeled human BCMA; blocked ligand BAFF; IC50 table in the figure. This is another data set of the same source.
The target in assay [19] is T5, monkey BCMA (recombinant antigen, tag …). Description: ELISA (OD450) on coated monkey BCMA; EC50 table in the figure. The source holds these as a separate data set.
For assay [20], the target named is T3, human-BCMA-Fc. The assay is described as follows: ELISA (OD450), GSK2857916 titrated up to 10 µg/mL on Human BCMA-Fc; EC50 table in the figure.
Assay [21] concerns the target T6, monkey BCMA on BCMA-CHO cells. Description: flow cytometry (MFI) on CHO cells expressing monkey BCMA; EC50 table in the figure; curve still rising at 10 µg/mL.
The next assay has as its target T8, human BCMA on H929 cells (human, UniProt Q02223 1-184).
T8 construct: whole, on cells; also called human myeloma cell line H929 cells expressing BCMA
T8 sequence (looked up): T4 sequence (looked up)
The assay is described as follows: flow cytometry (MFI) on myeloma cell line H929 expressing BCMA; EC50 table in the figure; curve still rising at about 60 µg/mL.

For assay [22], the target named is T2, Biotin-labeled human BCMA. Description: blocking ELISA (OD450): human APRIL coated, antibody premixed with Biotin-labeled human BCMA; blocked ligand APRIL; IC50 table in the figure. This is another data set of the same source.
In assay [23] the target is B1. Description: ELISA (OD450) on coated human BCMA; EC50 table in the figure. This is another data set of the same source.

For orientation: EC50 means the concentration at which the effect is half-maximal. For orientation: IC50 means the concentration at which inhibition is half-maximal. The Kd is the concentration at which binding is half-saturated. As a reminder, the koff is the rate constant with which the complex falls apart. As a reminder, the kon is the second-order rate constant of association.

Where two headings read alike, the source gives them in different places.

T5 sequence (A0A2K5UD97 entry or part of it limits assumed): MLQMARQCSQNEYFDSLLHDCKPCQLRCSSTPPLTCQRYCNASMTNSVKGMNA
T6 sequence (A0A2K5UD97 entry or part of it): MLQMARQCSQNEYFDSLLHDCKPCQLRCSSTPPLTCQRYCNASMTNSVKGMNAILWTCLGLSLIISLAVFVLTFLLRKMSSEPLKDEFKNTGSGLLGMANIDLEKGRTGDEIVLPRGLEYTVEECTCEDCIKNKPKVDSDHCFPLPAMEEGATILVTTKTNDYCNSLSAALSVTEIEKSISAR

In the case of B1, the EC50 in the assay with human-APRIL-Fc [1] stood at 2.05 mg/L; with human-APRIL-Fc [2], 1.57 mg/L; with human-APRIL-Fc [3], 1.28 mg/L; in the assay with human-APRIL-Fc [4] it was 1.07 mg/L.
For B2, the IC50 in assay [5] was found to be 1.41 mg/L; in [12], 1.36 mg/L; in [14], 1.51 mg/L; in assay [17] it was 1.79 mg/L; in assay [18] it was 1.37 mg/L; in assay [22], 1.6 mg/L. Besides, the values for the Kd (with human-BCMA-Fc [6]; in [13]) were 0.0539 nM and 0.352 nM, respectively. Besides, the koff with human-BCMA-Fc [6] was 1.19e-05 s⁻¹; in assay [13] it was 0.000111 s⁻¹. Further, the results for the on-rate constant (kon) (in the assay with human-BCMA-Fc [6]; in [13]) were 220000 M⁻¹ s⁻¹ and 317000 M⁻¹ s⁻¹, respectively. The EC50 was 0.772 mg/L in [7]; 0.514 mg/L in assay [8]; 0.293 mg/L in [9]; 0.862 mg/L in [10]; 0.749 mg/L in [11]; 1.09 mg/L in assay [15]. Also, the EC50 in assay [16] amounted to 2.88 mg/L; in the assay with human-BCMA-His, 0.77 mg/L; in assay [19], 0.341 mg/L; with human-BCMA-Fc [20], 0.304 mg/L; in assay [21] it was 7.22 mg/L; in the assay with human BCMA on H929 cells it was 6.8 mg/L. In addition, in [23], the concentration for a half-maximal effect (EC50) worked out at 0.642 mg/L.
